Experimental data from ChEMBL document CHEMBL2074012, “Multidrug resistance protein (MRP) 1 and MRP3 attenuate cytotoxic and transactivating effects of the cyclopentenone prostaglandin, 15-deoxy-Delta(12,14)prostaglandin J2 in MCF7 breast cancer cells” (Biochemistry, 2003).

Columns and labels:
Assay type in all cases: functional, cell-based
[1] = substrate: N[C@@H](CCC(=O)N[C@H](CSCCCCC/C=C/C=C1/C(=O)C=C[C@@H]1C/C=C\CCCC(=O)O)C(=O)NCC(=O)O)C(=O)O; test: (§1) TP_TRANSPORTER: uptake in MRP3-expressing MCF7 cells
[2] = substrate: CN(Cc1cnc2nc(N)nc(N)c2n1)c1ccc(C(=O)N[C@@H](CCC(=O)O)C(=O)O)cc1; test: as §1
[3] = substrate: N[C@@H](CCC(=O)N[C@H](CSCCCCC/C=C/C=C1/C(=O)C=C[C@@H]1C/C=C\CCCC(=O)O)C(=O)NCC(=O)O)C(=O)O; test: (§2) TP_TRANSPORTER: uptake in MRP1-expressing MCF7 cells
[4] = substrate: CN(Cc1cnc2nc(N)nc(N)c2n1)c1ccc(C(=O)N[C@@H](CCC(=O)O)C(=O)O)cc1; test: as §2

Protein | Km [1] [µM] | Km [2] [µM] | Km [3] [µM] | Km [4] [µM]
Multidrug resistance associated protein (Homo sapiens), Q96QA9 (protein) MDALCGSGELGSKFWDSNLSVHTENPDLTPCFQNSLLAWVPCIYLWVALPCYLLYLRHHCRGYIILSHLSKLKMVLGVLLWCVSWADLFYSFHGLVHGRAPAPVFFVTPLVVGVTMLLATLLIQYERLQGVQSSGVLIIFWFLCVVCAIVPFRSKILLAKAEGEISDPFRFTTFYIHFALVLSALILACFREKPPFFSAKNVDPNPYPETSAGFLSRLFFWWFTKMAIYGYRHPLEEKDLWSLKEEDRSQMVVQQLLEAWRKQEKQTARHKASAAPGKNASGEDEVLLGARPRPRKPSFLKALLATFGSSFLISACFKLIQDLLSFINPQLLSILIRFISNPMAPSWWGFLVAGLMFLCSMMQSLILQHYYHYIFVTGVKFRTGIMGVIYRKALVITNSVKRASTVGEIVNLMSVDAQRFMDLAPFLNLLWSAPLQIILAIYFLWQNLGPSVLAGVAFMVLLIPLNGAVAVKMRAFQVKQMKLKDSRIKLMSEILNGIKVLKLYAWEPSFLKQVEGIRQGELQLLRTAAYLHTTTTFTWMCSPFLVTLITLWVYVYVDPNNVLDAEKAFVSVSLFNILRLPLNMLPQLISNLTQASVSLKRIQQFLSQEELDPQSVERKTISPGYAITIHSGTFTWAQDLPPTLHSLDIQVPKGALVAVVGPVGCGKSSLVSALLGEMEKLEGKVHMKGSVAYVPQQAWIQNCTLQENVLFGKALNPKRYQQTLEACALLADLEMLPGGDQTEIGEKGINLSGGQRQRVSLARAVYSDADIFLLDDPLSAVDSHVAKHIFDHVIGPEGVLAGKTRVLVTHGISFLPQTDFIIVLADGQVSEMGPYPALLQRNGSFANFLCNYAPDEDQGHLEDSWTALEGAEDKEALLIEDTLSNHTDLTDNDPVTYVVQKQFMRQLSALSSDGEGQGRPVPRRHLGPSEKVQVTEAKADGALTQEEKAAIGTVELSVFWDYAKAVGLCTTLAICLLYVGQSAAAIGANVWLSAWTNDAMADSRQNNTSLRLGVYAALGILQGFLVMLAAMAMAAGGIQAARVLHQALLHNKIRSPQSFFDTTPSGRILNCFSKDIYVVDEVLAPVILMLLNSFFNAISTLVVIMASTPLFTVVILPLAVLYTLVQRFYAATSRQLKRLESVSRSPIYSHFSETVTGASVIRAYNRSRDFEIISDTKVDANQRSCYPYIISNRWLSIGVEFVGNCVVLFAALFAVIGRSSLNPGLVGLSVSYSLQVTFALNWMIRMMSDLESNIVAVERVKEYSKTETEAPWVVEGSRPPEGWPPRGEVEFRNYSVRYRPGLDLVLRDLSLHVHGGEKVGIVGRTGAGKSSMTLCLFRILEAAKGEIRIDGLNVADIGDPILFSGTLRMNLDPFGSYSEEDIWWALELSHLHTFVSSQPAGLDFQCSEGGENLSVGQRQLVCLARALLRKSRILVLDEATAAIDLETDNLIQATIRTQFDTCTVLTIAHRLNTIMDYTRVLVLDKGVVAEFDSPANLIAARGIFYGMARDAGLA | 2.9 | 910 | – | –
Multidrug resistance-associated protein 1 (Homo sapiens) (protein) MALRGFCSADGSDPLWDWNVTWNTSNPDFTKCFQNTVLVWVPCFYLWACFPFYFLYLSRHDRGYIQMTPLNKTKTALGFLLWIVCWADLFYSFWERSRGIFLAPVFLVSPTLLGITMLLATFLIQLERRKGVQSSGIMLTFWLVALVCALAILRSKIMTALKEDAQVDLFRDITFYVYFSLLLIQLVLSCFSDRSPLFSETIHDPNPCPESSASFLSRITFWWITGLIVRGYRQPLEGSDLWSLNKEDTSEQVVPVLVKNWKKECAKTRKQPVKVVYSSKDPAQPKESSKVDANEEVEALIVKSPQKEWNPSLFKVLYKTFGPYFLMSFFFKAIHDLMMFSGPQILKLLIKFVNDTKAPDWQGYFYTVLLFVTACLQTLVLHQYFHICFVSGMRIKTAVIGAVYRKALVITNSARKSSTVGEIVNLMSVDAQRFMDLATYINMIWSAPLQVILALYLLWLNLGPSVLAGVAVMVLMVPVNAVMAMKTKTYQVAHMKSKDNRIKLMNEILNGIKVLKLYAWELAFKDKVLAIRQEELKVLKKSAYLSAVGTFTWVCTPFLVALCTFAVYVTIDENNILDAQTAFVSLALFNILRFPLNILPMVISSIVQASVSLKRLRIFLSHEELEPDSIERRPVKDGGGTNSITVRNATFTWARSDPPTLNGITFSIPEGALVAVVGQVGCGKSSLLSALLAEMDKVEGHVAIKGSVAYVPQQAWIQNDSLRENILFGCQLEEPYYRSVIQACALLPDLEILPSGDRTEIGEKGVNLSGGQKQRVSLARAVYSNADIYLFDDPLSAVDAHVGKHIFENVIGPKGMLKNKTRILVTHSMSYLPQVDVIIVMSGGKISEMGSYQELLARDGAFAEFLRTYASTEQEQDAEENGVTGVSGPGKEAKQMENGMLVTDSAGKQLQRQLSSSSSYSGDISRHHNSTAELQKAEAKKEETWKLMEADKAQTGQVKLSVYWDYMKAIGLFISFLSIFLFMCNHVSALASNYWLSLWTDDPIVNGTQEHTKVRLSVYGALGISQGIAVFGYSMAVSIGGILASRCLHVDLLHSILRSPMSFFERTPSGNLVNRFSKELDTVDSMIPEVIKMFMGSLFNVIGACIVILLATPIAAIIIPPLGLIYFFVQRFYVASSRQLKRLESVSRSPVYSHFNETLLGVSVIRAFEEQERFIHQSDLKVDENQKAYYPSIVANRWLAVRLECVGNCIVLFAALFAVISRHSLSAGLVGLSVSYSLQVTTYLNWLVRMSSEMETNIVAVERLKEYSETEKEAPWQIQETAPPSSWPQVGRVEFRNYCLRYREDLDFVLRHINVTINGGEKVGIVGRTGAGKSSLTLGLFRINESAEGEIIIDGINIAKIGLHDLRFKITIIPQDPVLFSGSLRMNLDPFSQYSDEEVWTSLELAHLKDFVSALPDKLDHECAEGGENLSVGQRQLVCLARALLRKTKILVLDEATAAVDLETDDLIQSTIRTQFEDCTVLTIAHRLNTIMDYTRVIVLDKGEIQEYGAPSDLLQQRGLFYSMAKDAGLV | – | – | 1.4 | 930
